This is an account of results in publication PMC11254934.

The target of the assay is anti-fuc-PSA mAb 2E9 (rabbit). Kind of assay: SPR; Biacore 8k, 37 °C, HBS-ET (10 mM HEPES pH 7.4, 150 mM NaCl, 3 mM EDTA, 0.005% Tween 20) with 1 mg/mL carboxymethyl dextran; rabbit IgG from culture supernatant captured by goat anti-rabbit Fcγ on CM5; peptides injected at 0, 11, 33, 100, 300, 900 nM; Langmuir fit.

No end group written: not given here. *: point of attachment. G0F = octasaccharide N-glycan with core α-1,6-fucose, CC(=O)N[C@@H]1[C@@H](O)[C@H](O[C@@H]2O[C@H](CO)[C@@H](O[C@@H]3O[C@H](CO[C@H]4O[C@H](CO)[C@@H](O)[C@H](O)[C@@H]4O[C@@H]4O[C@H](CO)[C@@H](O)[C@H](O)[C@H]4NC(C)=O)[C@@H](O)[C@H](O[C@H]4O[C@H](CO)[C@@H](O)[C@H](O)[C@@H]4O[C@@H]4O[C@H](CO)[C@@H](O)[C@H](O)[C@H]4NC(C)=O)[C@@H]3O)[C@H](O)[C@H]2NC(C)=O)[C@@H](CO[C@@H]2O[C@@H](C)[C@@H](O)[C@@H](O)[C@@H]2O)O[C@H]1*

Sequence of anti-fuc-PSA mAb 2E9 (rabbit) (heavy, as listed by the source, chain 1 of 2): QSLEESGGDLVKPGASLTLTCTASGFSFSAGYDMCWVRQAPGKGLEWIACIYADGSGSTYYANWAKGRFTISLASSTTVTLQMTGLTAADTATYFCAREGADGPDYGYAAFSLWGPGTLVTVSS
Sequence of anti-fuc-PSA mAb 2E9 (rabbit) (light, as listed by the source, chain 2 of 2): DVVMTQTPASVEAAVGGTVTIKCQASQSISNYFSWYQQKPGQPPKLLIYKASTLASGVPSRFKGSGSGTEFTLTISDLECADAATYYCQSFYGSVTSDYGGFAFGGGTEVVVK

For orientation: Kd means a measure of binding affinity in units of concentration. One may read the stoichiometry N as the number of molecules, sites or subunits per partner or assembly. As for IRN(G0F)KSVILLGRHS [PSA(67–79)-G0F], the BL (binding late) amounted to 27 RU, the dissociation constant Kd was found to be 0.6 nM, the stoichiometry N was 2 and the t1/2 (antibody–antigen complex half-life) was determined as 10 min.
